Measured values from patent publication US20170247465A1, “COMBINATION THERAPY FOR TREATMENT OF CANCER” (OncoMed Pharmaceuticals, Inc., priority 2014, published 2017).

Test system: OMP-LU77 lung tumor cells
Test: OMP-LU77 lung tumor xenograft, staggered dosing of vantictumab and paclitaxel (Example 6)
Assay type: in vivo, NOD/SCID mice
Conditions: vantictumab 25 mg/kg administered two days prior to paclitaxel 15 mg/kg, every other week; versus same day, paclitaxel alone; FIG. 4
Protocol: FIG. 4. Inhibition of lung tumor growth in vivo by a Wnt pathway inhibitor in combination with a taxane using a staggered dosing schedule. OMP-LU77 lung tumor cells were injected subcutaneously into NOD/SCID mice. […] Vantictumab was administered at 25 mg/kg and paclitaxel at 15 mg/kg. Agents were administered every other week and administered intraperitoneally. Data is shown as tumor volume (mm^3) over days post treatment.
OMP-LU77 is a patient-derived non-small cell lung (NSCLC) tumor. Single cell suspensions of xenograft OMP-LU77 lung tumor cells (50,000 cells) were injected subcutaneously into NOD/SCID mice. Tumors were allowed to grow 37 days until they had reached an average volume of approximately 200 mm^3. Tumor-bearing mice were randomized into 4 groups (n=8-9 per group). […] Antibodies were dosed at 25 mg/kg, administered every other week. Paclitaxel was dosed at 15 mg/kg, also every other week. Tumor growth was monitored and tumor volumes were measured on the indicated days post-treatment. Data are expressed as mean±SEM.

B1: OMP-18R5: anti-FZD antibody, IgG2, also known as vantictumab; heavy chain SEQ ID NO:3, light chain SEQ ID NO:4 (antibody)
heavy: EVQLVESGGGLVQPGGSLRLSCAASGFTFSHYTLSWVRQAPGKGLEWVSVISGDGSYTYYADSVKGRFTISSDNSKNTLYLQMNSLRAEDTAVYYCARNFIKYVFANWGQGTLVTVSSASTKGPSVFPLAPCSRSTSESTAALGCLVKDYFPEPVTVSWNSGALTSGVHTFPAVLQSSGLYSLSSVVTVPSSNFGTQTYTCNVDHKPSNTKVDKTVERKCCVECPPCPAPPVAGPSVFLFPPKPKDTLMISRTPEVTCVVVDVSHEDPEVQFNWYVDGVEVHNAKTKPREEQFNSTFRVVSVLTVVHQDWLNGKEYKCKVSNKGLPAPIEKTISKTKGQPREPQVYTLPPSREEMTKNQVSLTCLVKGFYPSDIAVEWESNGQPENNYKTTPPMLDSDGSFFLYSKLTVDKSRWQQGNVFSCSVMHEALHNHYTQKSLSLSPGK
light: DIELTQPPSVSVAPGQTARISCSGDNIGSFYVHWYQQKPGQAPVLVIYDKSNRPSGIPERFSGSNSGNTATLTISGTQAEDEADYYCQSYANTLSLVFGGGTKLTVLGQPKAAPSVTLFPPSSEELQANKATLVCLISDFYPGAVTVAWKADSSPVKAGVETTTPSKQSNNKYAASSYLSLTPEQWKSHRSYSCQVTHEGSTVEKTVAPTECS
With B1 the “inhibition of tumor growth (tumor volume)” value was “significantly better at inhibiting tumor growth of the OMP-LU77 lung tumor cells than any of the other dosing regimens”.
